For orientation: Tm means the temperature at the midpoint of the melting transition.

B1: Glutamate dehydrogenase, P96110 (parent)
chain: MPEKSLYEMAVEQFNRAASLMDLESDLAEVLRRPKRVLIVEFPVRMDDGHVEVFTGYRVQHNVARGPAKGGIRYHPDVTLDEVKALAFWMTWKTAVMNLPFGGGKGGVRVDPKKLSRNELERLSRRFFSEIQVIIGPYNDIPAPDVNTNADVMAWYMDTYSMNVGHTVLGIVTGKPVELGGSKGREEATGRGVKVCAGLAMDVLGIDPKKATVAVQGFGNVGQFAALLISQELGSKVVAVSDSRGGIYNPEGFDVEELIRYKKEHGTVVTYPKGERITNEELLELDVDILVPAALEGAIHAGNAERIKAKAVVEGANGPTTPEADEILSRRGILVVPDILANAGGVTVSYFEWVQDLQSFFWDLDQVRNALEKMMKGAFNDVMKVKEKYNVDMRTAAYILAIDRVAYATKKRGIYP

The variants in this data set derive from B1. The note with it: Thermotoga maritima (strain ATCC 43589 / DSM 3109 / JCM 10099 / NBRC 100826 / MSB8), pH 7, CD, sodium phosphate 20 mM, reversible: yes, structure 1B26, whole UniProt chain shown.

With MPEKSLYEMAVEQFNRAASLMDLESDLAEVLRRPKRVLIVEFPVRMDDGHVEVFTGYRVQHNVARGPAKGGIRYHPDVTLDEVKALAFWMTWKTAVMNLPFGGGKGGVRVDPKKLSRNELERLSRRFFSEIQVIIGPYNDIPAPDVNTNADVMAWYMDTYSMNVGHTVLGIVTGKPVELGGSKGREEATGRGVAVCAGLAMDVLGIDPKKATVAVQGFGNVGQFAALLISQELGSKVVAVSDSRGGIYNPEGFDVEELIRYKKEHGTVVTYPKGERITNEELLELDVDILVPAALEGAIHAGNAERIKAKAVVEGANGPTTPEADEILSRRGILVVPDILANAGGVTVSYFEWVQDLQSFFWDLDQVRNALEKMMKGAFNDVMKVKEKYNVDMRTAAYILAIDRVAYATKKRGIYP [K194A], under “20 °C, GdnHCl”, the “ddG of mutation (higher = less stable)” value is -0.98 kcal/mol, the denaturant m value amounted to 2.74 kcal/mol/M, the “denaturant midpoint (higher = more stable)” value (“denaturant midpoint” below) worked out at 2.06 M and the unfolding free energy came out at 6.1 kcal/mol. Moreover, where the note is “69.5 °C, Thermal”, the “ddG of mutation (higher = less stable)” value was -0.23 kcal/mol. In addition, where the note is “Thermal”, the melting temperature (Tm) was determined as 71 °C; the “change of melting temperature, mutant - wild type (higher = more stable)” value (“change of melting temperature, mutant” for short) was found to be 1.5 °C; the “unfolding enthalpy (van 't Hoff)” value turned out to be 53.8 kcal/mol.
On to MPEKSLYEMAVEQFNRAASLMDLESDLAEVLRRPKRVLIVEFPVRMDDGHVEVFTGYRVQHNVARGPAKGGIRYHPDVTLDEVKALAFWMTWKTAVMNLPFGGGKGGVRVDPKKLSRNELERLSRRFFSEIQVIIGPYNDIPAPDVNTNADVMAWYMDTYSMNVGHTVLGIVTGKPVELGGSKGREEATGAGVKVCAGLAMDVLGIDPKKATVAVQGFGNVGQFAALLISQELGSKVVAVSDSRGGIYNPEGFDVEELIRYKKEHGTVVTYPKGERITNEELLELDVDILVPAALEGAIHAGNAERIKAKAVVEGANGPTTPEADEILSRRGILVVPDILANAGGVTVSYFEWVQDLQSFFWDLDQVRNALEKMMKGAFNDVMKVKEKYNVDMRTAAYILAIDRVAYATKKRGIYP [R191A], for which, where the note is “20 °C, GdnHCl”, the “ddG of mutation (higher = less stable)” value came out at 0.41 kcal/mol, the denaturant m value stood at 2.63 kcal/mol/M, the “denaturant midpoint” value amounted to 1.59 M and the unfolding free energy was 4.71 kcal/mol. Also, under “20 °C, Urea”, the “ddG of mutation (higher = less stable)” value came out at 0.32 kcal/mol, the denaturant m value is 1.7 kcal/mol/M, the “denaturant midpoint” value turned out to be 3.1 M and the unfolding free energy amounted to 4.53 kcal/mol. In addition, the “ddG of mutation (higher = less stable)” value (69.5 °C, Thermal) amounted to 0.34 kcal/mol. Besides, for the setting “Thermal”, the Tm turned out to be 67.3 °C; the “change of melting temperature, mutant” value is -2.2 °C; the “unfolding enthalpy (van 't Hoff)” value was determined as 49.5 kcal/mol.
As to MPEKSLYEMAVEQFNRAASLMDLESDLAEVLRRPKRVLIVEFPVRMDDGHVEVFTGYRVQHNVARGPAKGGIRYHPDVTLDEVKALAFWMTWKTAVMNLPFGGGKGGVRVDPKKLSRNELERLSRRFFSEIQVIIGPYNDIPAPDVNTNADVMAWYMDTYSMNVGHTVLGIVTGKPVELGGSKGREEATGAGVAVCAGLAMDVLGIDPKKATVAVQGFGNVGQFAALLISQALGSKVVAVSDSRGGIYNPEGFDVEELIRYKKEHGTVVTYPKGERITNEELLELDVDILVPAALEGAIHAGNAERIKAKAVVEGANGPTTPEADEILSRRGILVVPDILANAGGVTVSYFEWVQDLQSFFWDLDQVRNALEKMMKGAFNDVMKVKEKYNVDMRTAAYILAIDRVAYATKKRGIYP [R191A E232A K194A], under “20 °C, GdnHCl”, the “ddG of mutation (higher = less stable)” value is -0.03 kcal/mol, the denaturant m value stood at 2.72 kcal/mol/M, the “denaturant midpoint” value turned out to be 1.74 M and the unfolding free energy came out at 5.15 kcal/mol. In addition, under “20 °C, Urea”, the “ddG of mutation (higher = less stable)” value is -0.04 kcal/mol, the denaturant m value amounted to 1.42 kcal/mol/M, the “denaturant midpoint” value was found to be 3.35 M and the unfolding free energy was found to be 4.89 kcal/mol. Also, the “ddG of mutation (higher = less stable)” value (69.5 °C, Thermal) is -0.2 kcal/mol. Further, under “Thermal”, the Tm was 70.8 °C; the “change of melting temperature, mutant” value was determined as 1.3 °C; the “unfolding enthalpy (van 't Hoff)” value came out at 50.6 kcal/mol.
In the case of MPEKSLYEMAVEQFNRAASLMDLESDLAEVLRRPKRVLIVEFPVRMDDGHVEVFTGYRVQHNVARGPAKGGIRYHPDVTLDEVKALAFWMTWKTAVMNLPFGGGKGGVRVDPKKLSRNELERLSRRFFSEIQVIIGPYNDIPAPDVNTNADVMAWYMDTYSMNVGHTVLGIVTGKPVELGGSKGREEATGAGVKVCAGLAMDVLGIDPKKATVAVQGFGNVGQFAALLISQALGSKVVAVSDSRGGIYNPEGFDVEELIRYKKEHGTVVTYPKGERITNEELLELDVDILVPAALEGAIHAGNAERIKAKAVVEGANGPTTPEADEILSRRGILVVPDILANAGGVTVSYFEWVQDLQSFFWDLDQVRNALEKMMKGAFNDVMKVKEKYNVDMRTAAYILAIDRVAYATKKRGIYP [R191A E232A], under “20 °C, GdnHCl”, the “ddG of mutation (higher = less stable)” value came to 0.86 kcal/mol, the denaturant m value was 3.08 kcal/mol/M, the “denaturant midpoint” value turned out to be 1.44 M and the unfolding free energy amounted to 4.26 kcal/mol. In addition, for the setting “20 °C, Urea”, the “ddG of mutation (higher = less stable)” value was found to be 0.53 kcal/mol, the denaturant m value was determined as 1.53 kcal/mol/M, the “denaturant midpoint” value came to 2.96 M and the unfolding free energy worked out at 4.32 kcal/mol. Besides, the “ddG of mutation (higher = less stable)” value (69.5 °C, Thermal) stood at 0.15 kcal/mol. Further, for the setting “Thermal”, the Tm came to 68.5 °C; the “change of melting temperature, mutant” value was -1 °C; the “unfolding enthalpy (van 't Hoff)” value was 44.6 kcal/mol.
